Experimental data reported in publication PMC6141588, “Electron microscopy of Chaetomium pom152 shows the assembly of ten-bead string” (Cell Discovery, 2018).

Target: the molecule itself
Assay: cryo-EM micrographs of single particles; purified Ctpom152^FL, much of the detergent removed before rapid freezing; longer strings in up to an estimated 10% of over 2000 images

B1: full-length pom152 of Chaetomium thermophilum (Ctpom152^FL) (natural protein, UniProt G0SB44 1-1270, looked up)
chain: MSDAPAVGAFPQTPVAARRGPARPSDSTTSTTIKRTSPLPLAPQAGRQATNISPVIPLHILDAPTQRFYAFAFYLALTAWKLYDWTQVLEEDTESFLLFLKWIAIDCVFLFGLPELRIPWLELSQPFVMVAFAIHAMFDWILMFNIGFPWQSWVIGLLKVFYDREIAISEHNVKLSSILQNSSLIMGRQIINILPEGSAILNPELQPFCLGGDRKTANIPIFFNSTIPVEVELIRTDFETGQQESIKLSKSQLRDIERRAKRESQDGDTVQSIVQFDFPVKKTGAYRLGRVLDEYKLEVQRRNPLTFVVSCPKAWVGPALSAHRCVGDLSDLSMMVEGTPPLKIKYSRMINGKDHSFHFQSLQPEGFVSPLSGLRSNNWGYDEDDISWARAQKVPVGLNESMHSSGDWQYSIDEVQDGFGNIIKYDSLADDPDGKPKPKHLTQSFVVKKRPVIRLEGCDLRHPLKVAKGKSKNLPVSYGLSGGSREDSTYQIAWQFSPIDTLTESGDHGDVVTIGTYTAKNNRDRPTISAPGLYTLKSVSASQCEGEIQEPSSCLLLNPLEPRLSLRHEEIPDTCAGNSIGLRVDLDLIGTPPFIVRYDVISNGERRSERVSIPGLRYQLDLVPRIAGHHKYIFTHVGDSIYDGQKLSGPEYVLEQDVKPAAAALIQHSTGKMSSCLGDQVTVDILLLGDPPFTLEWELIHDGKRKQFKVPNIQENSYQIKTAPLTTGGEYTLGLTSVQDKRGCRNFLQEELKISVRRQSPRAAFGQVDGKRKILAVEGSSVKLPLRLTGEGPWKVYYANLHDGSPDKPKVQEKIIKSDNGFLEVRGRGAFAITDVWDSQCHGVVDPKASRFDVDWFPRPELSVALTHGVSKTETGFQLQDVCEGDVSGFEVALKGTPPFTVEYEVRHHPLQGSSSLSKKKIEGVVGKEAIQADTSKAGTYTYKFTALEDDLYSSNRGFQPIIVKQNVNRKPTASFVKPGQTFKYCKSEQDNEDGIPITLTGVPPFFLEVEIKHQSAAVPEIYRTPAIDSHSYELKIPRHHLRLGTQHIRIRDIRDGSGCHSTSGILSGPSVQVQLFEAPTIYPLETRTDYCVGERISYTLSGQAPFEVWYTFNGVELKAKSPNTNFRRIAESPGEFTITSVSDKASECRAPVSITKTIHPLPAVRISKGKSVRVDIHEGGEVDILFEFFGTPPFEFTYTRSTNARKGQKSQVLETRHDISHEHSKVIKASQEGTYEVVAIKDKYCSFSTQAVVGLEGGKKDKTKKLKVY
notes: also called FL Ctpom152; full-length Ctpom152; source: insect cells, purified with detergent extract; much of the detergent removed before cryo-EM
- binding result: binds
